Patent publication US9868789B2, “Synergistic combinations of OX40L antibodies for the treatment of GvHD” (Kymab Limited, priority 2015, dated 2018)
One block for each molecule: values may come before it.

Legend:
CHO-S expressed hOX40L = target: T1, CHO-S expressed hOX40L (Homo sapiens, UniProt P23510); test: FACS binding to CHO-S expressed hOX40L; details: binding to hOX40L expressed on CHO-S cells; YES
T1 construct: expressed in transfected cells
T1 sequence (P23510 1-183): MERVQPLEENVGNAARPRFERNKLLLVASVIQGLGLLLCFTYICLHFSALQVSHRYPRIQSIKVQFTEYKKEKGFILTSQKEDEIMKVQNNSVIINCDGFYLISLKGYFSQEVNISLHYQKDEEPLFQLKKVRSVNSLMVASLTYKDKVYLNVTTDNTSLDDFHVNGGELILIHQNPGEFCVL
Experimental: CHO-S cells expressing hOX40L or untransfected CHO-S cells, diluted in FACS buffer (PBS+1% w/v BSA+0.1% w/v NaN3) were distributed to a 96 well V-bottom plate (Greiner) at a density of 1×10^5 cells per well. Cells were washed with 150 μL of PBS and centrifuged at 300×g for 3 min. Supernatant was aspirated and 150 μL of PBS added. This wash step was repeated.
25 μL of hybridoma supernatant or purified antibody from hybridoma supernatant diluted in FACS buffer was added to the washed cells and incubated for 10-15 minutes. Reference Antibody or mouse IgG1 control antibody (Sigma) were diluted in FACS buffer to 20 μg/mL and 25 μL added to cells. 25 μL of human OX40R Fc (in-house) diluted to 1000 ng/mL in FACS buffer were then added to wells. Cells were incubated at 4° C. for 30 minutes.
Cells were washed twice with 150 μL of PBS centrifuging after each wash step and aspirating supernatant (centrifuged at 300×g for 3 minutes).
To detect antibody and receptor binding, 50 μL of Goat anti-human IgG-PE (Jackson ImmunoResearch) and APC anti-mouse IgG (Jackson ImmunoResearch) diluted 1 in 500 in FACS buffer was added to the cells. Cells were incubated 30 minutes at 4° C. in the dark.
To fix cells 100 μL 2% v/v paraformaldehyde was added and cells incubated for 30 minutes at 4° C., cells were pelleted by centrifugation 300×g and the plates and resuspended in 50 μL of FACS buffer. PE and APC signal intensity (geomean) was measured by flow cytometry using a BD FACS Array instrument.
% of control binding was calculated using geomean fluorescence as described in equation 1 where total binding was defined as reference antibody at 10 μg/mL and non-specific binding as mouse IgG1 antibody at 10 μg/mL. % receptor binding was calculated using Equation 3.
Binding of antibodies purified from hybridoma supernatant was carried out as described herein.

recombinant hOX40L = target: T2, recombinant hOX40L (Homo sapiens, UniProt P23510); test: Surface plasmon resonance, apparent affinity to human OX40L; type: binding; details: SPR, 25° C., OX40L at 256 nM; CNROR = Cannot resolve off-rate
T2 construct: cDNA encoding the extracellular domain of human OX40L was cloned into a pREP4 expression plasmid; made in house; host or cells: FreeStyle CHO-S, transient expression
Experimental: (§1) SPR analysis was carried out using the ProteOn™ XPR36 Array System (BioRad). Anti-mouse IgG (GE Healthcare BR-1008-38) was immobilised on a GLM biosensor surface using amine coupling, the surface was then blocked using 1 M ethanolamine. Test antibodies were captured on this surface and recombinant hOX40L (human and rhesus) were used at a single concentration of 256 nM, binding sensorgrams were double referenced using a buffer injection (i.e. 0 nM) to remove baseline drift and injection artefacts. Apparent affinities for the OX40L-antibody interaction were determined using the 1:1 model inherent to the ProteOn XPR36 analysis software. The assay was run using HBS-EP (Teknova) as running buffer and carried out at 25° C.

Rhesus monkey OX40L = test: Surface plasmon resonance, apparent affinity to rhesus OX40L; type: binding, Rhesus (Macaca mulatta); details: SPR, 25° C., OX40L at 256 nM; CNROR = Cannot resolve off-rate
Experimental: as §1

allogeneic PBMC/PBMC MLR = test: Allogeneic PBMC/PBMC Mixed Lymphocyte Reaction (IFN-γ release); type: cell-based, human; details: compared to the isotype control; one valid experiment
Experimental: PBMCs are isolated from leukoreduction system chambers (NHSBT) using Ficoll-Paque plus (GE Healthcare) density gradient centrifugation. PBMC are pre-incubated with mitomycin C (Sigma) at 10 μg/mL in PBS for one hour at 37° C. Cells are then washed 3 times in PBS centrifuging at 300×g for 3 minutes, aspirating the supernatant after each wash. Allogeneic PBMC (not treated with mitomycin C) are added to a 96-well plate in RPMI supplemented with 10% v/v FBS at a concentration of 2×10^6/ml, 50 μL/well. Anti-OX40L antibodies are diluted in culture media and added to 96 well plate containing PBMC (not mitomycin C treated) at 50 μL/well. Mitomycin C treated PBMC are then added to allogeneic PBMC (not treated with mitomycin C) in 96-well plate at a final cell ratio in range of 1:1 to 4:1 mitomycin C treated to non mitomycin C based on number of cells/well. The cells are incubated for five days at 37° C./5% CO2. After five days TNF-α, IFN-γ, and IL-2 are measured by duoset ELISA (R&D Systems) according to manufacturer's recommendations. Proliferation is measured by CFSE dilution according to manufacturer's recommendations.
PBMCs were isolated from leukoreduction system chambers (NHSBT) using Ficoll-Paque plus (GE Healthcare) density gradient centrifugation. […] After five days, IFN-γ was measured by duoset ELISA (R&D Systems) according to manufacturer's recommendations. […]

[1] = system: CD3 primed primary human T lymphocytes; test: Effect of anti-OX40L antibodies on CD3 primed primary human T lymphocytes (IFN-γ release); type: cell-based; details: 10 μg/mL, 5 days, four independent donors; versus human IgG4PE isotype control
Experimental: In order to determine whether anti-OX40L had the ability to induce T-cell responses in the absence of OX40L, the assay below was performed using method adapted from Wang et al., Hybridoma (Larchmt)., 2009 Aug.; 28(4):269-76, in which an agonist anti-OX40L antibody was described.
A mouse anti-human CD3 antibody (Becton Dickinson) was diluted to 0.5 μg/mL in sterile PBS and 50 μL/well added to a 96 well high binding sterile plate and incubated overnight at 4° C.
Following overnight incubation, the plate was washed three times with 100 μL of sterile PBS.
T-cells (CD3 positive) were isolated from PBMC derived from leukoreduction system chambers (NHSBT) as described in Example 3. Following isolation, the cells were added to wells in 100 μL to achieve a final concentration of 1×10^5 cells/well.
Test antibodies were diluted in RPMI+10% FBS and 50 μL or 100 μL/well added to cell plate to achieve a final assay concentration of 10 μg/mL. In some cases, a mouse anti-human CD28 antibody (Becton Dickinson) was also added to wells at a final concentration of 1 μg/ml
The assay was incubated for 5 days. After 5 days, harvest supernatants and IFN-γ levels in supernatant were determined as described in Example 5.

Sequence of Rhesus monkey OX40L (as listed by the source): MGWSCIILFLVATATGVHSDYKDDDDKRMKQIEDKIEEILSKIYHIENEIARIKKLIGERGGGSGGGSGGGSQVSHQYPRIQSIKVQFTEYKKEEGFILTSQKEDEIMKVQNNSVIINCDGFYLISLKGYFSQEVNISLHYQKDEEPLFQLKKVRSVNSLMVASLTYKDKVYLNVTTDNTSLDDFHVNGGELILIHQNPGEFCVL
T2 sequence (P23510 with tags, fused parts or gaps): as the sequence (as listed by the source) above, with Q77R, E95K counted along it

FACS Binding (CHO-S expressed hOX40L): YES
B1: 9H04 (hybridoma): murine/human chimeric anti-hOX40L antibody from hybridoma; VH SEQ ID No:66, VL SEQ ID No:80 (antibody, listed as Homo Sapiens, V domains shown)
VH: QVQLVESGGGLVKPGGSLRLSCAASRFTLSDYYMTWIRQAPGKGLEWVSYISSSGNTIYYADSVKGRFTISRDNAKNSLYLQMNSLRAEDTAVYYCARDLSGSYWDYYYGMDVWGQGTTVTVSS
VL: AIQLTQSPSSLSTSVGDRVTIACRASQGINNALAWYQQKPGKAPKLLIYDASSLESGVPSRFSGSGSGTDFTLTISSLQPEDFATYYCQQFNSYPRTFGQGTKVEIK

Apparent Affinity hOX40L (nM) (recombinant hOX40L): CNROR
Apparent Affinity RhsOX40L (nM) (Rhesus monkey OX40L): CNROR
B2: 10A07 (human): fully human anti-human OX40L antibody reformatted to IgG4-PE; VH SEQ ID No:2, VL SEQ ID No:16 (antibody, listed as Homo Sapiens, V domains shown)
VH: EVQLVESGGVLVQPGGSLRLSCAASGFTFSSYIMTWVRQAPGKGLEWVSGISGSGGGTYYADSMKGRFTISRDNSKNTLYLQMNSLRVEDTAVYYCAKDRLGPITLVRGGYYYGMDVWGQGTTVTVSS
VL: DIQMTQSPSSLSASVGDRVTITCRASQSISDYLNWYQQKPGKAPKFLIYAASSLQSGVPSRFSGSGSGTDFTLTVSSLQPEDFATYYCQQSYSTPRTFGQGTRVEIK
modifications: IgG4-PE constant region
IFN-γ release in PBMC/PBMC MLR (allogeneic PBMC/PBMC MLR): inhibited IFN-γ release
IFN-γ release from CD3 primed T-cells in the absence of OX40L [1]: no effect

FACS Binding (CHO-S expressed hOX40L): YES
Apparent Affinity hOX40L (nM) (recombinant hOX40L): CNROR
Apparent Affinity RhsOX40L (nM) (Rhesus monkey OX40L): CNROR
B3: 10A07 (hybridoma): murine/human chimeric anti-hOX40L antibody purified from hybridoma supernatant; VH SEQ ID No:2, VL SEQ ID No:16 (antibody, listed as Homo Sapiens, V domains shown)
VH: B2 VH
VL: B2 VL

FACS Binding (CHO-S expressed hOX40L): YES
Apparent Affinity hOX40L (nM) (recombinant hOX40L): CNROR
Apparent Affinity RhsOX40L (nM) (Rhesus monkey OX40L): CNROR
B4: 2D10 (hybridoma): murine/human chimeric anti-hOX40L antibody purified from hybridoma supernatant; VH SEQ ID No:34, VL SEQ ID No:48 (antibody, listed as Homo Sapiens, V domains shown)
VH: EVQLVESGGGLVQPGGSLRLSCAASGFTFSNYAMNWVRQAPGKGLEWVSTISGSGGATRYADSVKGRFTISRDNSRNTVYLQMNSLRVEDTAVFYCTKDRLIMATVRGPYYYGMDVWGQGTTVTVSS
VL: DIQMTQSPSSLSASVGDRVTITCRASQSISSYLNWYQQKPGKAPNLLIYAASSLQSGVPSRFSGSGSETDFTLTISSLQPEDFATYYCQQSHSVSFTFGPGTKVDIK
